The values below come from patent US10143748B2, “B-cell reduction using CD37-specific and CD20-specific binding molecules” (Emergent Product Development Seattle, LLC, priority 2005, dated 2018).

“Also recorded” adds a separate entry of the source.

For assay [1], the target named is T1, CD37 cell surface receptor (Homo sapiens, UniProt P11049).
T1 construct: Human PBMCs were isolated over LSM density gradients and incubated with unconjugated TRU-016; endogenous in cells; host or cells: human PBMC (CD19-positive B lymphocyte gate)
T1 sequence (P11049 1-281): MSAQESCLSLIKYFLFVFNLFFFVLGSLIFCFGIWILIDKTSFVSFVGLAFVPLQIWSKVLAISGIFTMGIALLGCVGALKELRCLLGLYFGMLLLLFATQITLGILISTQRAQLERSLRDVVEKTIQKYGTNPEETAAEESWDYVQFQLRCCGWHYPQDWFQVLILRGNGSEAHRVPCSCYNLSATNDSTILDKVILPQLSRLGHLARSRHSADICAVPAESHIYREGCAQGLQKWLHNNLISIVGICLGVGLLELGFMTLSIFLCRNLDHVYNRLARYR
Briefly: TRU-016 binding to human PBMC, two-color flow cytometry. Here is the method: Experiments were also performed to determine that the binding specificity of the parent antibody to the CD37 cell surface receptor is preserved in TRU-016. Human PBMCs were isolated over LSM density gradients and incubated with unconjugated TRU-016 and PE-conjugated anti-human CD19. Cells were washed and incubated with 1:100 FITC GAH IgG (Fc specific) for 45 minutes on ice. Cells were washed and analyzed by two-color flow cytometry on a FACsCalibur instrument using Cell Quest software. Cells were gated for B lymphocytes or non-B lymphocytes by CD19 staining.
With increasing concentrations of TRU-016, the FITC signal on the B lymphocyte (CD19 positive gate) increased rapidly from 0.01-1.0 μg/ml, until it reached saturation at approximately 1 μg/mL or a mean fluorescence intensity (MFI) of 1000. […] Thus, the staining pattern of the G28-1 murine monoclonal antibody is preserved with TRU-016 (FIG. 1C).

The next assay has as its system BJAB cells. Briefly: Annexin V/PI apoptosis analysis, BJAB. In kind it is cell-based.
In another assay the test system is DHL-4 B cells. Description: CDC assay on DHL-4 B cells. In kind it is cell-based. To be noted: FIG. 7. As for the experimental part: Cells were suspended in Iscoves (#12440-053, Gibco/Invitrogen, Granland, N.Y.) at 5×10E^5 cells/well in 75 μl. […] Binding reactions were allowed to proceed for 45 minutes prior to centrifugation and washing in serum free Iscoves. Cells were resuspended in Iscoves with human serum (#A113, Quidel, San Diego, Calif.) at the indicated concentrations. The cells were incubated 60 minutes at 37° C. Cells were washed by centrifugation and resuspended in 125 μl PBS with 2% FBS (#16140-071, Gibco, Invitrogen, Grand Island, N.Y.), staining media. The cells were transferred to FACS cluster tubes (#4410, CoStar, Corning, N.Y.) and 125 μl staining media with 5 μl propidium iodide (PI, #P-16063, Molecular Probes, Eugene Oreg.) was added. Samples were incubated 15 minutes at room temperature in the dark prior to analysis by flow cytometry using a FACsCalibur and CellQuest software (Becton Dickinson).

Assay [2] deals with CD19+ primary CLL B cells. Briefly: tyrosine phosphorylation, 2D gel anti-phosphotyrosine immunoblot. To be noted: 5 ug/ml, 10 minutes, then crosslinker 25 ug/ml 5 minutes, FIG. 29. In kind it is cell-based, human. Here is the method: Freshly isolated CD19+ cells (−50−100×106) from CLL patients were suspended at a concentration of 5×10^6/ml PBS. Cells were then incubated for 10 minutes at 37° C., 5% CO2, with control, trastuzumab (herceptin), or TRU-016 at a final concentration of 5 ug/ml. Cells were spun down, supernatant was removed, and cells were resuspended in fresh PBS of initial volume. Goat anti-human Fc fragment specific crosslinker (25 ug/ml) was added and cells were incubated for an additional 5 minutes. Cells were again spun down, supernatant was removed, and cells were lysed in 1 ml of RIPA lysis buffer with protease and phosphatase inhibitors (10 mM Tris, ph7.4, 150 mM NaCl,1% Triton X-100, 1% deoxycholic acid, 0.1% SDS and 5 mM EDTA all final concentrations. Sigma protease inhibitor cocktail cat#P-8340; Sigma phosphatase inhibitor cocktail: serine/threonine phosphatase inhibitor cocktail pat#P-2850; and tyrosine phosphatase inhibitor cat#P-5726;PMSF (100 mM) were all used. The inhibitors were added to the lysis buffer immediately prior to use at a 1:100 dilution. Protein concentration in the lysates was quantified by the bicin choninic acid (BCA) method (Pierce, Rockford, Ill.). The control arid treated protein samples (SOug total protein) were separated by two-dimensional gel electrophoresis (pH Range 3-10) (1st Dimension) and 10% SDS-PAGE (2nd Dimension). […]

Experimental for BJAB cells: Experiments examining the effect of B cell targeted SMIPS on B cell line apoptosis were performed. Each SMIP was tested individually and then in combination. Samples were analyzed at both 24 and 48 hours after initiation of incubation reactions. […] In addition, 20 μg/mL goat anti-human IgG was added to reactions in order to cross link reagents on the cell surface. Cells were then stained with Annexin V-FITC and propidium iodide using the BD Pharmigen Apoptosis Detection Kit I (#556547), and processed according to kit instructions. Briefly, cells were washed twice with cold PBS and resuspended in “binding buffer” at 1×10^6 cells/mL. One hundred microliters of the cells in binding buffer were then stained with 5 μl of Annexin V-FITC and 5 μl of propidium iodide. The cells were gently vortexed and incubated in the dark at room temperature for 15 minutes. Four hundred microliters of binding buffer was then added to each sample. They were then read and analyzed on a FACsCalibur (Becton Dickinson) instrument using Cell Quest software (Becton Dickinson).

Take “G28-1 scFv VH11S(SSC—P)H WCH2 WCH3 [TRU-016]”: in assay [1] (B lymphocyte (CD19 positive gate)), the “mean fluorescence intensity (MFI) at saturation” value worked out at 1000. For the same substance, the “staining of / binding to the non-B lymphocyte population” value in assay [1] (CD19 negative gate) was “much lower level of binding; also recorded: detectable, but very low”. The “binding to human peripheral blood B lymphocytes” value in assay [1] (flow cytometry, FIG. 1C) is reported as “high level, specific binding”. Moreover, the “concentration at which FITC signal on B lymphocytes (CD19 positive gate) reached saturation” value in assay [1] (human PBMC, FITC GAH IgG detection) is “approximately 1 μg/mL”. The “Annexin V Positive” value in the assay with BJAB cells (Bjab, 20 μg/mL SMIP, goat anti-human IgG crosslinking) is given as 30.6. Moreover, in the assay with BJAB cells (in the presence of crosslinking, BJAB, Ramos, Daudi, Table 2), the “effect on apoptosis of cell lines” value is listed as “more significant effect on apoptosis of cell lines than TRU-015 alone”. For the same substance, the “CDC killing of DHL-4 B cells” value in the assay with DHL-4 B cells is “little or no activity alone”. Moreover, the tyrosine phosphorylation entry in assay [2] was “induced tyrosine phosphorylation”.
